From CN117820471A (VAZYME MEDICAL CO LTD; HUNAN NOVAZYME MEDICAL TECH CO LTD, dated 2024)

Key:
GFAP-His重组蛋白 [1] = biological target: T1, GFAP-His重组蛋白 (Homo sapiens (Human), UniProt P14136 1-432); assay: chemiluminescence sandwich assay on GFAP-His (Rabbit anti-GFAP mAb on magnetic beads, test antibody labelled with acridinium ester)
T1 construct: Recombinant GFAP expressed in 293F cells; also called GFAP-His蛋白; Glial fibrillary acidic protein

GFAP-His重组蛋白 [2] = biological target: T1, GFAP-His重组蛋白; assay: fixed capture antibody in the sandwich ELISA that detects GFAP-His

T1 sequence (P14136 other isoform, or with tags, fused parts or gaps limits assumed): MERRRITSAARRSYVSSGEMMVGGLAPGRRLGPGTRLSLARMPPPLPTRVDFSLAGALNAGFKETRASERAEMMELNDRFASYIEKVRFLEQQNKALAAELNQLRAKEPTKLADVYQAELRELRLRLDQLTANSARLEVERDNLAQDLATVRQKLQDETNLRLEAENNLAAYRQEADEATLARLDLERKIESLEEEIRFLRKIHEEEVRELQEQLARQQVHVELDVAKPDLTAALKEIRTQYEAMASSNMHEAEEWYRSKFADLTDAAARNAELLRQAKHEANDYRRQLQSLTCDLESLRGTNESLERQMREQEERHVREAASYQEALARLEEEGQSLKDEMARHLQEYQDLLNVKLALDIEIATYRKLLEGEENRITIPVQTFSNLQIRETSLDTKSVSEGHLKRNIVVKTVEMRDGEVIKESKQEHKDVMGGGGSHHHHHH

Row | Binder | binding result (GFAP-His重组蛋白 [1]) | binding result (GFAP-His重组蛋白 [2])
1 | Anti-GFAP-rRmab-1 (antibody, V domains shown, the rabbit constant regions are not; It was labelled with acridinium ester in the chemiluminescence sandwich assay; also called GFAP特异性抗体; 优选抗体) VH: QSLEESGGRLVTPGTPLTLTCTSSGFSLSSYYIQWVRQAPGKGLEWIGIIYASGSTYYASWAKGRFTISKTSATVDLKITSPTQEDTATYFCARNDYDSNLIMSIWGPGTLVTVSS VL: AYDMTQTPASMEVAVGGTVTINCQASQNIGSSLAWYQQKPGQRPKLLIYRASTLASGVPSRFSGSGSGTEFTLTISGLQCDDAATYYCQQHFSIGAVQNVFGGGTEVVVR | binds | 
2 | Rabbit anti-GFAP mAb (antibody, V domains shown, Rabbit monoclonal antibody developed earlier, used as the fixed capture antibody (coated on the plate or on magnetic beads) in the sandwich assays; also called 包被抗体; 与之配对的抗体) VH: QSLEESGGRLVTPGGSLTLTCTVSGIDLTTYTMTWVRQAPGKGLEWIGIISGSGTTYYASWAKGRFTISKTSTTVDLKITSPTTEDTATYFCARDLYGSSDIYNIWGPGTLVTVST VL: DIVMTQTPASVSAAVGGTVTINCQASESIRNYLSWYQQKPGQPPKLLIFDASTLASGVSSRFKGSGSGTEFTLTISDLECADAATYYCQTYYGVSGFGNAFGGGTEVVVK |  | binds
